Measured values from patent US20070202103A1 (EMD LEXIGEN RESEARCH CENTER, published 2007).
Values joined by “and” are separate entries in the source; they are usually repeats but may differ in a detail not shown here. Equal entries are not always repeated. Each block holds one molecule with its values, some of them ahead of it.

Assays:
[1] = target: recombinant oncofoetal fibronectin FN7B89 (Fn MRGS-7B89-HHHHHH) (human); assay: SPR kinetics, FN7B89 on chip, bivalent fit
[2] = target: polypeptide including human fibronectin domains 7, ED-B, 8, and 9 (human) (UniProt P02751); assay: SPR, experiment 2
Chain of polypeptide including human fibronectin domains 7, ED-B, 8, and 9 (human) (P02751 1173-1538 limits assumed): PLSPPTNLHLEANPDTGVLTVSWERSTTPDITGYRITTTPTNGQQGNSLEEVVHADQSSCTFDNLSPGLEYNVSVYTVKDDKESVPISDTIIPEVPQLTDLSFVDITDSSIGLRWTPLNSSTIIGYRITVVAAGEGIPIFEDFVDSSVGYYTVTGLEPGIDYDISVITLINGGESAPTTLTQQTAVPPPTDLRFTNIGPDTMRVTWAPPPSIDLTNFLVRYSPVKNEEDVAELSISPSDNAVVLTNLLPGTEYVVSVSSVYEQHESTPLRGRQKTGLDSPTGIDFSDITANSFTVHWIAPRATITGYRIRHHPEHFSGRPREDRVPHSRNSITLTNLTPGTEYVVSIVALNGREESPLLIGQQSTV

[3] = target: polypeptide including human fibronectin domains 7, ED-B, 8, and 9 (human) (UniProt P02751); assay: SPR
[4] = target: polypeptide including human fibronectin domains 7, ED-B, 8, and 9 (human) (UniProt P02751); assay: SPR, experiment 1; exp. 1
[5] = target: polypeptide including human fibronectin domains 7, ED-B, 8, and 9 (human) (UniProt P02751); assay: SPR, experiment 2; exp. 2
[6] = target: polypeptide including human fibronectin domains 7, ED-B, 8, and 9 (human) (UniProt P02751); assay: SPR, experiment 1
[7] = target: polypeptide including human fibronectin domains 7, ED-B, 8, and 9 (human) (UniProt P02751); assay: SPR, against huBC1
[8] = target: T1, polypeptide including human fibronectin domains 7, ED-B, 8, and 9 (human, UniProt P02751 1173-1538, limits assumed); assay: SPR, experiment 1; exp. 1
T1 construct: domain: fibronectin domains 7, ED-B, 8, and 9
T1 sequence (P02751 1173-1538 limits assumed): as above

[9] = target: T1, polypeptide including human fibronectin …; assay: SPR, experiment 2; exp. 2
[10] = target: recombinant oncofoetal fibronectin FN7B89 (Fn MRGS-7B89-HHHHHH) (human); assay: SPR kinetics, against muBC1
[11] = target: T1, polypeptide including human fibronectin …; assay: SPR, experiment 1
[12] = target: T1, polypeptide including human fibronectin …; assay: SPR, experiment 2

Molecule: muBC1 (murine constant regions) (antibody)
- koff [2]: 0.0011 s⁻¹
- kon [2]: 1650 M⁻¹ s⁻¹
- Kd [1]: 377 nM
- koff [1]: 0.00065 s⁻¹
- kon [1]: 1700 M⁻¹ s⁻¹
- Kd [3]: 686 nM

B1: huBC1-IL12 (BC1-IL12 fusion protein of Example 2) (protein, part only; not given: constant regions and IL-12 subunits, not shown: a dimerising Fc or GST)
heavy, part: EVQLVQSGADVKKPGASVKVSCKASGYTFTNYVMHWVRQAPGQGLEWLGYINPYNDGTQYNERFKGRVTMTGDTSISTAYMELSRLTSDDTAVYYCAREVYGNYIWGNWGQGTLVSVSS
light: EIVLTQSPGTLSLSPGERATLSCSASSSISSNYLHWYQQKPGQAPRLLIYRTSNLASGIPDRFSGSGSGTDFTLTISRLEPEDFAVYYCQQGSSIPFTFGQGTKLEIKRTVAAPSVFIFPPSDEQLKSGTASVVCLLNNFYPREAKVQWKVDNALQSGNSQESVTEQDSKDSTYSLSSTLTLSKADYEKHKVYACEVTHQGLSSPVTKSFNRGEC
- Kd [4]: 7.6 nM
- Kd [5]: 8.3 nM
- koff [2]: 0.0016 s⁻¹
- kon [2]: 19000 M⁻¹ s⁻¹
- koff [6]: 0.0013 s⁻¹
- kon [6]: 17000 M⁻¹ s⁻¹
- fold tighter binding than the huBC1 antibody alone [7]: > 10 fold and 16 fold

B2: huBC1 (humanised BC1 antibody, human constant regions) (antibody, V domains shown)
VH: B1 heavy, part
VL: EIVLTQSPGTLSLSPGERATLSCSASSSISSNYLHWYQQKPGQAPRLLIYRTSNLASGIPDRFSGSGSGTDFTLTISRLEPEDFAVYYCQQGSSIPFTFGQGTKLEIK
notes: Only variable domains are tied to the unfused antibody; also called huBC1 antibody; HuBC1 Ab
- Kd [8]: 125 nM
- Kd [9]: 138 nM
- fold faster off-rate than muBC1 [10]: 5 fold
- fold faster on-rate than muBC1 [10]: 34 fold
- koff [11]: 0.0078 s⁻¹
- kon [11]: 62000 M⁻¹ s⁻¹
- Kd [1]: 54 nM
- koff [1]: 0.00312 s⁻¹
- kon [1]: 57600 M⁻¹ s⁻¹
- koff [12]: 0.01 s⁻¹
- kon [12]: 73000 M⁻¹ s⁻¹

Next, values leading:

- Kd [1]: 17.3 nM
- koff [1]: 0.00087 s⁻¹
- kon [1]: 50900 M⁻¹ s⁻¹
Molecule: huBC1-huIL12 (humanised BC1 antibody-human IL12 fusion protein) (from UniProt P29460 23-328)

- Kd [1]: 13.9 nM
- koff [1]: 0.00109 s⁻¹
- kon [1]: 79500 M⁻¹ s⁻¹
Molecule: huBC1-muIL12 (HuBC1-g1-M1-muIL12) (from UniProt P43431 23-215; P43432 23-335)
